Columns and labels:
[1] = molecular target: MacQ heterodimer consisting of an α-chain and a β-chain (wild-type, cleaved form) (Acidovorax sp. strain MR-S7); assay: crystal structure; wild-type MacQ, ligand-free and with the reaction products C10 and PAA; crystals at 20 °C from 100 mM Tris-HCl pH 7.5–8.5, 0.1–0.2 M calcium acetate, 14–18% PEG 3350
[2] = molecular target: MacQ heterodimer consisting of an α-chain and a β-chain (wild-type, cleaved form) (Acidovorax sp. strain MR-S7); assay: SEC; analytical gel filtration, Superose 6 10/300 GL, 50 mM sodium phosphate pH 8.0, 200 mM NaCl, 0.4 mL/min

- stoichiometry N [1]: 2
- stoichiometry N [2]: 2
Substance: MacQ heterodimer consisting of an α-chain and a β-chain (wild-type, cleaved form) (complex)
